According to patent US20180073089:

Target: recombinant substrate protein VAMP-2 (2-94)-GFP (UniProt P63027)
Sequence (P63027 2-94): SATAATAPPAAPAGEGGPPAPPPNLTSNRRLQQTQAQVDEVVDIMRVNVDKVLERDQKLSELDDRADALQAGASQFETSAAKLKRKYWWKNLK

Substance: native BoNT/F (nBoNT/F) control
- % of cleaved product: 65% versus 46%
- specific activity: 26 nmol/h/pmol vs 18 nmol/h/pmol
